Data from the supplement of paper PMC11780869.

Tested on: Bacillus subtilis
Assay: cleaved RNA product abundance (RNA/gDNA barcode ratio) relative to median wild-type variant (ratio to wild type); higher = more accumulation of the downstream cleavage product
Procedure, shortened: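 Oligos with a 9% error rate were used to build barcoded, mutagenized RNase Y cleavage-site windows within truncated aprE or tetM reporter mRNAs, which were integrated into the B. subtilis chromosome. Cultures were grown in LB at 37°C between OD600 0.0003 and 0.3. Cleaved RNA was gel-selected, reverse transcribed and barcode-sequenced, as were genomic DNA barcodes, and UMIs were collapsed. Cleaved product abundance is the scaled RNA:gDNA barcode ratio, with the median construct carrying the unmutated site as reference.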

[1] = experiment (reporter, strain, medium): exp 8a: truncated aprE reporter, strain BJT201 with 2% xylose (RNase J1 expressed), cleavage site: glnRA (positions -5 to +31 mutated)
[2] = experiment (reporter, strain, medium): exp 4a: truncated aprE reporter, strain BJT201 with 2% xylose (RNase J1 expressed), cleavage site: cggR-gapA (positions -7 to +36 mutated)
[3] = experiment (reporter, strain, medium): exp 2b: truncated aprE reporter, strain BJT200, cleavage site: cggR-gapA (positions -7 to +36 mutated)
[4] = experiment (reporter, strain, medium): exp 6: tetM reporter, strain 168, cleavage site: cggR-gapA (positions -7 to +36 mutated)

Row | Sequence | cleaved RNA product abundance [1] | cleaved RNA product abundance [2] | cleaved RNA product abundance [3] | further results
1 | CGACATGTCCCGCTTCTTTCATTAATCCGTTAGCAACTGTTACGCTATATACATTTACCTTTTAAGAGGAGGAAT | 0.54 |  |  | 
2 | CGACATGTCCCGCTTCTTTCATTAATCCATTAGCAAATGTTTTGCTATATACATTTACCTTTTAAGAGGAGGAAT | 1.18 |  |  | 
3 | ACAGACGAAGGAGCCGCAAAGAAGTTATTAAGGGATGAATAATCCGTCAATAAAAATATCTCTCACTTATTTAAA |  | 0.173 |  | 
4 | ACAGACGAAGGAGCCGCAAAGAAGTTATTGAGGCATGAATAATCCCTCAATATAAATATCTCTCACTTATTTAAA |  | 0.0717 | 0.0906 | 
5 | CGACATGTCCCGCTTCTTTCATTAATCAGTTAGCAACTGTTTTGCTATATACATTTACCCTTTAAGAGGAGGAAT | 1.22 |  |  | 
6 | ACAGACGAAGGAGCCGCAAAGAAGTTATTAAGGTATGAATAATCCCTCAATATAACTATCTCTCACTTATTTAAA |  | 0.102 |  | 
7 | ACAGACGAAGGAGCCGCAAAGAAGTTATTAAGGGATGAATAATCCCTCATTAAAAATATCTCTCACTTATTTAAA |  |  | 0.116 | 
8 | ACAGACGAAGGAGCCGCAAAGAATTTATTAAGGGATGAATAATCCCTCTATATAAATATCTCTCACTTATTTAAA |  | 0.543 | 0.363 | 
9 | ACAGACGAAGGAGCCGCAAAGAAGTTATTAAGGGATAAATAATCCCTAAATATAAATATCTCTCACTTATTTAAA |  | 0.734 | 0.597 | 
10 | CGACATGTCCCGCTTCTTTCATTACTCCGTTAGCAACTGTTTTGATATATACATTTACCTTTTAAGAGGAGGAAT | 0.587 |  |  | 
11 | ACAGACGAAGGAGCCGCATAGAAGTTATTAAGGGATGAATAATCCCTTAATATAAATATCTCTCACTTATTTAAA |  | 0.448 | 1.12 | 
12 | CGACATGTCCCGCTTCTTTCATTAATCCGTTATCAACTGTTTTGCTATATACATTGACCTTTTAAGAGGAGGAAT | 0.253 |  |  | 
13 | ACAGACGAAGGAGCCGCAAAGAAATTATTAAGGTATGAATAATCCCTCAATATAAATATCTCTCACTTATTTAAA |  | 0.105 | 0.122 | 
14 | ACAGACGAAGGAGCCGCCAAGAAGTTATTCAGGGATGAATAATCCCTCAATATAAATATCTCTCACTTATTTAAA |  | 0.506 |  | 
15 | ACAGACGAAGGAGCCGCAAAGAAGTTATTAAGGTATGAATAATCCCTCAATATAAACATCTCTCACTTATTTAAA |  | 0.124 |  | 
16 | ACAGACGAAGGAGCCGCAAAGAAGTTATTAAGGGATAAATAATCCCTCAATATATATATCTCTCACTTATTTAAA |  | 0.916 |  | 
17 | CGACATGTCCCGCTTCTTTCATTAGTCCGTTAGCAACTGTTTTGATATATACATTTACCTTTTAAGAGGAGGAAT | 0.542 |  |  | 
18 | ACAGACGAAGGAGCCGCAAAGAAGTTATTAAGGGATGAATAATCCCTCTATGTAAATATCTCTCACTTATTTAAA |  | 0.0964 | 0.16 | 
19 | ACAGACGAAGGAGCCGCAAAGAAGTTATAAAGGGATGAATATTCCCTCAATATAAATATCTCTCACTTATTTAAA |  | 0.281 |  | 
20 | ACAGACGAAGGAGCCGCAAAGAAGTAATTAAAGGATTAATAATCCCTCAATATAAATATCTCTCACTTATTTAAA |  | 0.183 |  | 

Row | Sequence | cleaved RNA product abundance [1] | cleaved RNA product abundance [2] | cleaved RNA product abundance [3] | further results
21 | ACAGACGAAGGAGCCGCAAAGAAGTTATTAAAGGATGAGTAATCCCTCAATATAAATATCTCTCACTTATTTAAA |  | 0.202 |  | 
22 | ACAGACGAAGGAGCCGCAAAGAAGTTATTAAGGGATGAATAATCCATCATTATAAATATCTCTCACTTATTTAAA |  |  | 0.158 | 
23 | CGACATGTCCCGCTTCTTTCATTAATCCGTTAGTAACTGTTTTGCTATATACATTTACCATTTAAGAGGAGGAAT | 0.33 |  |  | 
24 | CGACATGTCCCGCTTCTTTCATTAATCCGTTAACAACTGTTTTGCTATATACATTTATCTTTTAAGAGGAGGAAT | 0.236 |  |  | 
25 | ACAGACGAAGGAGCCGCAAAAAAGTTATTAAGGGATGAATAATCCCACAATATAAATATCTCTCACTTATTTAAA |  | 0.254 | 0.237 | 
26 | CGACATGTCCCGCTTCTTTCATTAATCCGTTATCAACTGTTTTGCTATAAACATTTACCTTTTAAGAGGAGGAAT | 0.182 |  |  | 
27 | ACAGACGAAGGAGCCGCAAAGAAGTTATTAAGGGATGAATAATCCCTCTACATAAATATCTCTCACTTATTTAAA |  | 0.441 |  | 
28 | ACAGACGAAGGAGCCGCAAAGATGTTATAAAGGGATGAATAATCCCTCAATATAAATATCTCTCACTTATTTAAA |  | 0.441 | 0.259 | 
29 | ACAGACGAAGGAGCCGCAAAGAAGTTATTAAAGGATGAATAATCCCTCAATATAAATATCTCTCACTTATTTAAA |  | 0.211 | 0.162 | cleaved RNA product abundance [4]: 0.242
30 | ACAGACGAAGGAGCCGCTAAGAAGTTATTAAGGGATTAATAATCCCTCAATATAAATATCTCTCACTTATTTAAA |  | 1.02 |  | 
31 | ACAGACGAAGGAGCCGCAAAGAAGTTATTAAGTGATGAATAACCCCTCAATATAAATATCTCTCACTTATTTAAA |  | 0.109 |  | 
32 | ACAGACGAAGGAGCCGCAAAGAAGTTATTAAGGCATGAATAATCCCTCAATATACATATCTCTCACTTATTTAAA |  | 0.129 | 0.112 | 
33 | ACAGACGAAGGAGCCGCAAAGAAGTTATTAAGGCATGAAAAATCCCTCAATATAAATATCTCTCACTTATTTAAA |  | 0.0945 | 0.0832 | 
34 | ACAGACGAAGGAGCCGCAAAGAAGTTATTAATGGATGAATAATCCCTCAATATCAATATCTCTCACTTATTTAAA |  | 0.0753 |  | 
35 | CGACATGTCCCGCTTCTTTCATTAATGCGTTAGCAACTATTTTGCTATATACATTTACCTTTTAAGAGGAGGAAT | 1.28 |  |  | 
36 | CGACATGTCCCGCTTCTTTCATTACTCCGTTAGCAACTGTTTTGCTATAAACATTTACCTTTTAAGAGGAGGAAT | 0.608 |  |  | 
37 | ACAGACGAAGGAGCCGCATAGAAGTTATTAAGGGATGAATAATCCCTAAATATAAATATCTCTCACTTATTTAAA |  | 0.658 |  | 
38 | ACAGACGAAGGAGCCGCAAAGAAGTTATTATGGAATGAATAATCCCTCAATATAAATATCTCTCACTTATTTAAA |  | 0.105 |  | 
39 | ACAGACGAAGGAGCCGCAAAGAACTTATTAAGGGATGAATAATCACTCAATATAAATATCTCTCACTTATTTAAA |  | 0.152 | 0.102 | 
40 | ACAGACGAAGGAGCCGCAAAGAAGTTATTAAGGGATGAATAATGACTCAATATAAATATCTCTCACTTATTTAAA |  | 0.142 |  | 

Row | Sequence | cleaved RNA product abundance [1] | cleaved RNA product abundance [2] | cleaved RNA product abundance [3] | further results
41 | CGACATGTCCCGCTTCTTTCATTAATCCGTTAGCAACTGTTTAGCTATATACATTTAGCTTTTAAGAGGAGGAAT | 0.608 |  |  | 
42 | CGACATGTCCCGCTTCTTTCATTAATCCGTTAGCAACTGTTCAGCTATATACATTTACCTTTTAAGAGGAGGAAT | 0.344 |  |  | 
43 | ACAGACGAAGGAGCCGCAAAGAAGTTATTAAGGCATGAATAATCACTCAATATAAATATCTCTCACTTATTTAAA |  | 0.0873 | 0.118 | 
44 | ACAGACGAAGGAGCCGCAAAGAAGTTATTAAGGGATGAATAATCCGTCAAAATAAATATCTCTCACTTATTTAAA |  | 0.262 |  | 
45 | CGACATGTCCCGCTTCTTTCATTAATCTGTTAGCAACTGTTTTGGTATATACATTTACCTTTTAAGAGGAGGAAT | 0.264 |  |  | 
46 | ACAGACGAAGGAGCCGCACAGAAGTTATTAAGGGATGAATAATCCCTCAATATAAATATCTCTCACTTATTTAAA |  | 1.04 | 0.962 | cleaved RNA product abundance [4]: 1.07
47 | ACAGACGAAGGAGCCGCCAAGAAGTTATTAAGTGATGAATAATCCCTCAATATAAATATCTCTCACTTATTTAAA |  | 0.146 |  | 
48 | CGACATGTCCCGCTTCTTTCATTAATCCGTTTGCAACTGTTTTGCTATATACATTTACGTTTTAAGAGGAGGAAT | 0.661 |  |  | 
49 | CGACATGTCCCGCTTCTTTCATTAATCCGTTAGTAACTGTTTTGCTAAATACATTTACCTTTTAAGAGGAGGAAT | 0.496 |  |  | 
50 | ACAGACGAAGGAGCCGCAAAGAAGTAATTAAGGGATGAATAATCCCTCAATGTAAATATCTCTCACTTATTTAAA |  | 0.114 |  | 
51 | ACAGACGAAGGAGCCGCAAAGAAGTTATTAAGGAATGAATAATCCTTCAATATAAATATCTCTCACTTATTTAAA |  | 0.265 | 0.148 | 
52 | ACAGACGAAGGAGCCGCAAAGAATTTATTAAGGGATGAATAATGCCTCAATATAAATATCTCTCACTTATTTAAA |  | 0.177 |  | 
53 | ACAGACGAAGGAGCCGCAAAGAAGTTATTAAGGGATGAATATTTCCTCAATATAAATATCTCTCACTTATTTAAA |  | 0.186 | 0.188 | 
54 | CGACATGTCCCGCTTCTTTCATTAATCCGTTAGCAACTGTTTTTCTATATACATTTTACCTTTTAAGAGGAGGAA | 0.435 |  |  | 
55 | CGACATGTCCCGCTTCTTTCATTAATCCGTAAGCAACTGTTTGGCTATATACATTTACCTTTTAAGAGGAGGAAT | 0.371 |  |  | 
56 | ACAGACGAAGGAGCCGCAAAGAAGTTATTAAGGGATGTATAAACCCTCAATATAAATATCTCTCACTTATTTAAA |  | 0.592 | 0.448 | 
57 | ACAGACGAAGGAGCCGCAAAGAAGTTATTAATGGTTGAATAATCCCTCAATATAAATATCTCTCACTTATTTAAA |  | 0.121 | 0.107 | 
58 | CGACATGTCCCGCTTCTTTCATTAATCCGTTAACAACTGTTTTGCTATATACACTTACCTTTTAAGAGGAGGAAT | 0.329 |  |  | 
59 | ACAGACGAAGGAGCCGCAATGAAGTTATTAATGGATGAATAATCCCTCAATATAAATATCTCTCACTTATTTAAA |  | 0.202 | 0.126 | 
